Laboratory results taken from patent EP3205670.
Numbering of substitutions follows the chain as printed.

What was measured:
hRSV F protein (FTM-NN) [1] = molecular target: T1, hRSV F protein (FTM-NN) (hRSV, UniProt P03420); experiment: competition, AlphaScreen
hRSV F protein (FTM-NN) [2] = molecular target: T1, hRSV F protein (FTM-NN); experiment: SPR

T1 sequence (P03420 26-524): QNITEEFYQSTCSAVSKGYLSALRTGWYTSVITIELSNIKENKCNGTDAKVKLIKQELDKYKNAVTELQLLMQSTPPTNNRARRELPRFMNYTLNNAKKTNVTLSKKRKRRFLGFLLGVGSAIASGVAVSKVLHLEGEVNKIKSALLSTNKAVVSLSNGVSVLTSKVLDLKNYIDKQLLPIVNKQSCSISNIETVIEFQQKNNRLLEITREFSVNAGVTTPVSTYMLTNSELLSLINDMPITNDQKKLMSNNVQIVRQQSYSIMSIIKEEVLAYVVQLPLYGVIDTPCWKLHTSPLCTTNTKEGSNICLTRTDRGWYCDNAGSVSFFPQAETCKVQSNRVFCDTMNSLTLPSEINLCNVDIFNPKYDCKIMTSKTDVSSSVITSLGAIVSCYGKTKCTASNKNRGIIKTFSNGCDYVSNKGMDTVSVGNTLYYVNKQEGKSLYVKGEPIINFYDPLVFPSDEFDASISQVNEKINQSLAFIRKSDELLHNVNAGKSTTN

B1: Numax Fab (antibody, V domains shown)
VH: QVTLRESGPALVKPTQTLTLTCTFSGFSLSTAGMSVGWIRQPPGKALEWLADIWWDDKKHYNPSLKDRLTISKDTSKNQVVLKVTNMDPADTATYYCARDMIFNFYFDVWGQGTTVTVSS
VL: DIQMTQSPSTLSASVGDRVTITCSASSRVGYMHWYQQKPGKAPKLLIYDTSKLASGVPSRFSGSGSGTEFTLTISSLQPDDFATYYCFQGSGYPFTFGGGTKVEIK
**Q.** B1 was tested. Which IC50 (hRSV F protein (FTM-NN) [1]) did it give?
**A.** The IC50 was 0.086 nM.

B2: Synagis Fab (antibody, V domains shown)
VH: B1 VH with A32S, H60D, D67S, D100S, F103T, F105W, Q112A
VL: B1 VL with S24K, A25C, S26Q, S27L, R28S, V103L
**Q.** With B2 as the binder, how does the IC50 (hRSV F protein (FTM-NN) [1]) read?
**A.** The IC50 was 0.597 nM.

B3: Synagis (antibody, V domains shown)
VH: B1 VH with A32S, H60D, D67S, D100S, F103T, F105W, Q112A
VL: B1 VL with S24K, A25C, S26Q, S27L, R28S, V103L
**Q.** B3 was tested. Which Kd (hRSV F protein (FTM-NN) [2]) did it give?
**A.** The Kd was 0.64 nM.
